Experimental data as given in the DeepSol protein solubility set.

Experiment: soluble on expression in E. coli; label from the status in PepcDB or PDB records

Soluble on expression in E. coli, soluble:
MGHHHHHHSHMASVSSATFSGHGARSLLQFLRLVGQLKRVPRTGWVYRNVQRPESVSDHMYRMAVMAMVIKDDRLNKDPEAMKQITQLLPEDLRKELYELWEEYETQSSAEAKFVKQLDQCEMILQASEYEDLEHKPGRLQDFYDSTAGKFNHPEIVQLVSELEAERSTNIAAAASEPHS
SNAMKKGTVLNSEISSVISRLGHTDTLVVCDAGLPIPNSTARIDMALTQGVPSFMQVVDVVTREMQVEAAILATEIKQQNPQLHETLLTHLEQLQQHQGNTIKISYTTHEQFKKLTADSQAVIRSGECSPYANVILCAGVTF
MLDRFATKQTQEKLKIGVVGVFAIGCLFPLLSDFKRSYPHIDLHISTHNNRVDPAAEGLDYTIRYGGGAWHDTDAQYLCSALMSPLCSPTLASQIQTPADILKFPLLRSYRRDEWALWMQTVGEAPPSPTHNVMVFDSAVTMLEAAQAGMGVAIAPVRMFTHLLSSERIVQPFLTQIDLGSFWITRLQSRPETPAMREFSRWLTGVLHKTSGSHHHHHH

Soluble on expression in E. coli, not soluble:
MNWKQEFSRWLSYAELDAELKEQLENMKQDEKKIEDSFYKNLEFGTGGMRGELGAGTNRLNVYTVRKATQGLAKFIEKLGEEAKKRGVVVAYDSRHKSPEFAMEVAATLGAHGITTYVFESLRPTPVLSFAVRHLHTVSGIVLTASHNPPEYNGYKVYGEDGGQLPPKEADELISYVNAVEDELTVEVADVEQLKADGLLHMIGQEVDDAYAAELNNVIINKEMVQKVGKDLKIVFTPLHGTSNLSVRRGLAEVGFTDVTVVKEQELPDPNFSTVKSPNPEEHAAFEYAIRDGEKVGADVLIATDPDADRLGVAVRNHDGEFQVLTGNQTGALMLDYLLSQKKENGTLPENGVVLKTIVTSEIGRTIAKAYGLDTVDTLTGFKFIGEKIKQYEESGQYEFQFGYEESYGYLIRPFCRDKDAVQSVLFACEVAAYYKSQGKTLYDGLLEVFEKYGFFREDLVSLTLKGKDGAEQIQEMMATFRENPPKEVAGLTVVAVEDYKASIITSLQDGHKEEIHLPKSNVLKYQLEDGSWFCLRPSGTEPKIKFYFGVQDNSLQNSEQKLLTIKEDIMNRL
MGHHHHHHSHMGDPEYLATFRIVVMPIAREFSPDLVLVSAGFDAAEGHPAPLGGYHVSAKCFGYMTQQLMNLAGGAVVLALEGGHDLTAICDASEACVAALLGNRVDPLSEEGWKQKPNLNAIRSLEAVIRVHSKYWGCMQRLASCPDSWVPRVPGADKEEVEAVTALASLSVGILAEDRPSEQLVEEEEPMNL
YDPSKDPSSSLARRNLIIGLMEKAGFITHAQAVRAKATPLVLHYTPVTQQGLAPYFTEYIRQTIKSSSMLEGVNVYRDGL
MYFMKSKNRFLLISLLSFSTSVFADVNLYGPGGPHVPLIKVAESFEKSQSKRVNITFGPQATWNDKAKKNADILFGASEHSALAIAEGHSERFSKFNIHPVFMREAIILVKKGNPKNIKGMADLLKPGIGIVVNDGAGVSNTSGTAVWEDSVGRMKNVEKLQAFRSNIHVFAPNSGSARKAFVDGEDIDAWITWVDWAIANPTIGDMVRMEDEYRIYRDFNVVLAKNPSSEAIDFFDYLTKSKDAEAIFQHYGWFK
MGSDKIHHHHHHMSKVIITCAVTGAIHTPSMSRYLPVTPEEIIEASVGAAEAGAAIIHLHARDPVTGKPDQSPDAFGRFLPQIKARTDAVLNITSGGSPYMTIEERIQPSMRFAPEVASLNMGSMNFALFPMLARFKEFKHAWEREALEASRDLIFRNTFKDIEYALAQCAANDTRFEFECYDVGHLYNLAHFVERGLVKAPFFVQTVFGILGGIGTHPEDVSHMKRTADRLFGNDYRWSVLGAGKDQLRLAGMSASMGGNVRVGLEDSLWLGRGTLAESNAAQVRQARQIIEGLGLEIASPNEAREILQLKGIEKVKF
MAKNTLSFVCQNCGAAYNRWQGKCESCGEWNTLAEEDTSGSVPVSIRSKRKGRTFALESLAGKSPDAPRLSSGMTELDRVTGGGFVRGSVLLVGGDPGIGKSTLLTQATSLMARAGHRIVYISGEEAIAQVRLRAERLGLSDAPVQLAAETSVEDIVSTLSEGAVPRLIVIDSIQTMWTDTVESAPGTVTQVRASAQALIRFAKKTGAAIILVGHVTKDGQIAGPRVVEHMVDAVMSFEGEGSQQFRILRAVKNRFGPTDEIGVFEMTGLGLREVTNPSELFLSERDLGTPGTAVFAGIEGTRPVLVELQALVAPTSLGTPRRAVVGWDPSRLSMVLAVLEAHCGVKLSGHDVYLNVAGGLRIHEPAADLAAAAALVSSLVNAQLPTDAVYFGEISLSGVVRPVAQTPARLKEAAKLGFQRAVLPESARGEAGGDAGLSLNAVNSLTTLVAEIAARGSRRGESGGSAEKNATPARFRRGEGLEHHHHHH
